Here are results for three molecules from patent publication US20160194357A1, “Novel NPR-B Agonists” (published 2016).

Bridges are numbered along the chain shown (N, C = ends). Where no end group is shown, it is not given here.

The target of test [1] is T1, natriuretic peptide receptor -A (Homo sapiens).
T1 chain: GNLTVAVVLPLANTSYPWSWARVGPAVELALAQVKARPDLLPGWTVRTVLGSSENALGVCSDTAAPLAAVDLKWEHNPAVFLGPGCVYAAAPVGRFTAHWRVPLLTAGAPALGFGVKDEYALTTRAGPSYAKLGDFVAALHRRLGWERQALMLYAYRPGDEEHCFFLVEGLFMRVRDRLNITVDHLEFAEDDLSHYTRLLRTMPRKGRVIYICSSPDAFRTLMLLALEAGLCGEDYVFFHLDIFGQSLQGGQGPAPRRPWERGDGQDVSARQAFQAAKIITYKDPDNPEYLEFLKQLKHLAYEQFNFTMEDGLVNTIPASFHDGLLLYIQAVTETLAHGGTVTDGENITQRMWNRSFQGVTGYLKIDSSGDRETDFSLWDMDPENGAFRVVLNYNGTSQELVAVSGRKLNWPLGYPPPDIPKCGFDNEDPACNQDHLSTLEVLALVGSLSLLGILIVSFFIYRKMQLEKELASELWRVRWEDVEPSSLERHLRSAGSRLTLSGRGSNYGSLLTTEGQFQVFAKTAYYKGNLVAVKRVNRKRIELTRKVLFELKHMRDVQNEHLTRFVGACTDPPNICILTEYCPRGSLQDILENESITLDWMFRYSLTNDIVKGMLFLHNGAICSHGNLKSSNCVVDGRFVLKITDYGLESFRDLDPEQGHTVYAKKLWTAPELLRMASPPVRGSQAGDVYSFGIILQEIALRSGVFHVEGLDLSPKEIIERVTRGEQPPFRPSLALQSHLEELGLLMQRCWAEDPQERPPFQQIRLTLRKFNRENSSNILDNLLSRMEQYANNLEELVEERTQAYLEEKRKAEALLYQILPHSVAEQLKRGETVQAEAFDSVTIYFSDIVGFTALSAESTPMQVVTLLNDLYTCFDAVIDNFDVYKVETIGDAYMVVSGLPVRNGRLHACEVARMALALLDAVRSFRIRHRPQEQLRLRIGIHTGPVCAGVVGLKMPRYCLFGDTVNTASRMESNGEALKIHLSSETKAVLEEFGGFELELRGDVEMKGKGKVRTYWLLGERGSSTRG
Nature of the test: cell-based or functional assay.

The target of test [2] is T2, natriuretic peptide receptor -B (human).
T2 chain: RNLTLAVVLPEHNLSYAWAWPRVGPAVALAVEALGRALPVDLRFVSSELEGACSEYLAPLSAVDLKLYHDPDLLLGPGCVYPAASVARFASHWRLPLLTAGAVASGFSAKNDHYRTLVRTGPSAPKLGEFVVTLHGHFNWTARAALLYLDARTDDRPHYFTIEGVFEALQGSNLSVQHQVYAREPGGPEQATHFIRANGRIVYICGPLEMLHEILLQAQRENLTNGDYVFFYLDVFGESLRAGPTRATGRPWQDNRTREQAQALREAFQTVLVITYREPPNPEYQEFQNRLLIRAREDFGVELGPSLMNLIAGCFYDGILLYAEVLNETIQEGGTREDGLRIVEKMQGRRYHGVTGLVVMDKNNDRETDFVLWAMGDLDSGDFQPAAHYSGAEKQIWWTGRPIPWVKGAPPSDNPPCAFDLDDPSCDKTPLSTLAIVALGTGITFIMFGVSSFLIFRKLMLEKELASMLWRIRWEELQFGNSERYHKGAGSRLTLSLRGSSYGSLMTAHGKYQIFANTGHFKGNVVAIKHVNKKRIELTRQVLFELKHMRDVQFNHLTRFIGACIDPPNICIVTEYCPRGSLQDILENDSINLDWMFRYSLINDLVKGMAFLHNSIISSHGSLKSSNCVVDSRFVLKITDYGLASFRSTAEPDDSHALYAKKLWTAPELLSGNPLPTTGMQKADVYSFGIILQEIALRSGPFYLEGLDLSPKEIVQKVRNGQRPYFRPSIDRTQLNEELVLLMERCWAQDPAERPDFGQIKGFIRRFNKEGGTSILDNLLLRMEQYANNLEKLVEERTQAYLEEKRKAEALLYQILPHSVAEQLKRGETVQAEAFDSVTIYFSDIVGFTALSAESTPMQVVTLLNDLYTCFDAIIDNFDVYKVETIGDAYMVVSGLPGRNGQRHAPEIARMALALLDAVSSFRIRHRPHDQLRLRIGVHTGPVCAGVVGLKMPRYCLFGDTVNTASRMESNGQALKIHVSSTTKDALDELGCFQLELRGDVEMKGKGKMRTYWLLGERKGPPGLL
Nature of the test: cell-based or functional assay.

B1: mini-ANP (peptide)
peptide: MCHFGGRMDRISCYR
On to B1, for which, in test [1], the “cyclic GMP production in NPR-A transfected 293-T cells, EC50” value was determined as 1540 nM. Moreover, in test [2], the “cyclic GMP production in GTM-3 cells, EC50” value was > 45000 nM and the “cyclic GMP production in GTM-3 cells, Emax (maximum activation)” value (“cyclic GMP production … (maximum activation)” for short) is 0%.

B2: atrial natriuretic peptide (ligand)
peptide: SLRRSSCFGGRMDRIGAQSGLGCNSFRY
modifications: disulfide 7-23
In the case of B2, in test [2], the “cyclic GMP production in GTM-3 cells, EC50” value was determined as 1630 nM and the “cyclic GMP production … (maximum activation)” value was 15%.

B3: C-type natriuretic peptide (ligand)
peptide: GLSKGCFGLKLDRIGSMSGLGC
modifications: disulfide 6-22
For B3, the “cyclic GMP production in NPR-A transfected 293-T cells, EC50” value in test [1] came to 1600 nM. In test [2], the “cyclic GMP production in GTM-3 cells, EC50” value stood at 38.8 nM and the “cyclic GMP production … (maximum activation)” value is 100%.
